{"source": "paper PMC4689385", "target": "KillerOrange", "experiment": "crystal structure; KillerOrange; hanging drop vapor diffusion at 20°C; ~22 mg/ml protein in 20 mM Tris pH 8.0, 200 mM NaCl; reservoir 0.02M Na acetate pH 5.0, 1% gamma-PGA, 3% PEG 4K; data at 100 K", "data": [{"substance": "KillerOrange", "values": [{"measurement": "stoichiometry N", "result": 2}]}]}
